Experimental data published in the supplement of paper PMC9112550, “Optimization of the antimicrobial peptide Bac7 by deep mutational scanning” (BMC Biology, 2022).

Test system: Escherichia coli TOP10
Assay: shrunken log2 fold change of peptide-encoding DNA abundance (4.5 h post-induction vs induction); higher = less antimicrobial activity (less host growth inhibition)
Conditions: time post-induction: 4.5 h; library: site-saturation at positions 5, 18, 19, 20
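Further: peptides expressed intracellularly from a pBAD plasmid library in pooled LB shake-flask culture, induced with 0.3% L-arabinose, DNA abundance read by NGS, three biological replicates, DESeq2 with apeglm shrinkage.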

RRIRRRPPRLPRPRPRPVSIPRP
shrunken log2 fold change: -0.0599

RRIRRRPPRLPRPRPRPVSRPRP
shrunken log2 fold change: -0.0137

RRIRRRPPRLPRPRPRPVTIPRP
shrunken log2 fold change: 0.297

RRIRRRPPRLPRPRPRPVVSPRP
shrunken log2 fold change: 0.132

RRIRRRPPRLPRPRPRPVWFPRP
shrunken log2 fold change: 0.0857

RRIRRRPPRLPRPRPRPVYIPRP
shrunken log2 fold change: -0.535

RRIRRRPPRLPRPRPRPWAPPRP
shrunken log2 fold change: 0.043

RRIRRRPPRLPRPRPRPWCRPRP
shrunken log2 fold change: 1.02

RRIRRRPPRLPRPRPRPWCVPRP
shrunken log2 fold change: -0.032

RRIRRRPPRLPRPRPRPWDAPRP
shrunken log2 fold change: 0.143

RRIRRRPPRLPRPRPRPWDFPRP
shrunken log2 fold change: 0.0406

RRIRRRPPRLPRPRPRPWGGPRP
shrunken log2 fold change: 0.53

RRIRRRPPRLPRPRPRPWGWPRP
shrunken log2 fold change: 0.482

RRIRRRPPRLPRPRPRPWHHPRP
shrunken log2 fold change: -0.242

RRIRRRPPRLPRPRPRPWHRPRP
shrunken log2 fold change: -0.113

RRIRRRPPRLPRPRPRPWIHPRP
shrunken log2 fold change: -0.147

RRIRRRPPRLPRPRPRPWIYPRP
shrunken log2 fold change: -0.118

RRIRRRPPRLPRPRPRPWKWPRP
shrunken log2 fold change: -0.00244

RRIRRRPPRLPRPRPRPWLGPRP
shrunken log2 fold change: 0.353

RRIRRRPPRLPRPRPRPWLLPRP
shrunken log2 fold change: 0.0822

RRIRRRPPRLPRPRPRPWMGPRP
shrunken log2 fold change: -0.127

RRIRRRPPRLPRPRPRPWNGPRP
shrunken log2 fold change: -0.346

RRIRRRPPRLPRPRPRPWPAPRP
shrunken log2 fold change: 0.448

RRIRRRPPRLPRPRPRPWPNPRP
shrunken log2 fold change: -0.0193

RRIRRRPPRLPRPRPRPWRTPRP
shrunken log2 fold change: -0.0112

RRIRRRPPRLPRPRPRPWSEPRP
shrunken log2 fold change: -0.142

RRIRRRPPRLPRPRPRPWSYPRP
shrunken log2 fold change: -0.573

RRIRRRPPRLPRPRPRPWTFPRP
shrunken log2 fold change: -0.103

RRIRRRPPRLPRPRPRPWTHPRP
shrunken log2 fold change: 0.0267

RRIRRRPPRLPRPRPRPWTQPRP
shrunken log2 fold change: -0.0997

RRIRRRPPRLPRPRPRPWVDPRP
shrunken log2 fold change: 0.0233

RRIRRRPPRLPRPRPRPWVMPRP
shrunken log2 fold change: -0.123

RRIRRRPPRLPRPRPRPWWEPRP
shrunken log2 fold change: 1.82

RRIRRRPPRLPRPRPRPWWGPRP
shrunken log2 fold change: 0.288

RRIRRRPPRLPRPRPRPWWRPRP
shrunken log2 fold change: 0.463

RRIRRRPPRLPRPRPRPWYRPRP
shrunken log2 fold change: -0.151

RRIRRRPPRLPRPRPRPYCIPRP
shrunken log2 fold change: -0.264

RRIRRRPPRLPRPRPRPYDLPRP
shrunken log2 fold change: -0.546

RRIRRRPPRLPRPRPRPYDQPRP
shrunken log2 fold change: -0.0875

RRIRRRPPRLPRPRPRPYDVPRP
shrunken log2 fold change: -0.0964

RRIRRRPPRLPRPRPRPYDYPRP
shrunken log2 fold change: 0.00863

RRIRRRPPRLPRPRPRPYEIPRP
shrunken log2 fold change: -0.39

RRIRRRPPRLPRPRPRPYEKPRP
shrunken log2 fold change: 0.0137

RRIRRRPPRLPRPRPRPYESPRP
shrunken log2 fold change: 0.0181

RRIRRRPPRLPRPRPRPYFMPRP
shrunken log2 fold change: -0.353

RRIRRRPPRLPRPRPRPYGLPRP
shrunken log2 fold change: -0.0176

RRIRRRPPRLPRPRPRPYGPPRP
shrunken log2 fold change: -0.64

RRIRRRPPRLPRPRPRPYGSPRP
shrunken log2 fold change: -0.00192

RRIRRRPPRLPRPRPRPYINPRP
shrunken log2 fold change: -0.832

RRIRRRPPRLPRPRPRPYIVPRP
shrunken log2 fold change: -0.263

RRIRRRPPRLPRPRPRPYKPPRP
shrunken log2 fold change: 0.0267

RRIRRRPPRLPRPRPRPYLIPRP
shrunken log2 fold change: -0.082

RRIRRRPPRLPRPRPRPYMNPRP
shrunken log2 fold change: -0.621

RRIRRRPPRLPRPRPRPYNMPRP
shrunken log2 fold change: -0.499

RRIRRRPPRLPRPRPRPYQTPRP
shrunken log2 fold change: -0.071

RRIRRRPPRLPRPRPRPYQWPRP
shrunken log2 fold change: -0.244

RRIRRRPPRLPRPRPRPYRAPRP
shrunken log2 fold change: -0.47

RRIRRRPPRLPRPRPRPYRRPRP
shrunken log2 fold change: 0.0385

RRIRRRPPRLPRPRPRPYRVPRP
shrunken log2 fold change: -0.0172

RRIRRRPPRLPRPRPRPYTAPRP
shrunken log2 fold change: -0.447

RRIRRRPPRLPRPRPRPYTFPRP
shrunken log2 fold change: -0.0103

RRIRRRPPRLPRPRPRPYTHPRP
shrunken log2 fold change: -0.505

RRIRRRPPRLPRPRPRPYVCPRP
shrunken log2 fold change: -0.374

RRIRRRPPRLPRPRPRPYWDPRP
shrunken log2 fold change: -0.247

RRIRRRPPRLPRPRPRPYWTPRP
shrunken log2 fold change: 0.000827

RRIRRRPPRLPRPRPRPYYRPRP
shrunken log2 fold change: -0.186

RRIRRRPPRLPRPRPRPYYYPRP
shrunken log2 fold change: -0.9

RRIRSRPPRLPRPRPRPAAHPRP
shrunken log2 fold change: 0.154

RRIRSRPPRLPRPRPRPAAKPRP
shrunken log2 fold change: 0.155

RRIRSRPPRLPRPRPRPACQPRP
shrunken log2 fold change: 0.0147

RRIRSRPPRLPRPRPRPACRPRP
shrunken log2 fold change: 0.212

RRIRSRPPRLPRPRPRPAFMPRP
shrunken log2 fold change: 0.309

RRIRSRPPRLPRPRPRPAFPPRP
shrunken log2 fold change: 0.278

RRIRSRPPRLPRPRPRPAGEPRP
shrunken log2 fold change: 0.0686

RRIRSRPPRLPRPRPRPAGHPRP
shrunken log2 fold change: -0.794

RRIRSRPPRLPRPRPRPAGNPRP
shrunken log2 fold change: -0.0422

RRIRSRPPRLPRPRPRPAGWPRP
shrunken log2 fold change: 0.795

RRIRSRPPRLPRPRPRPAHPPRP
shrunken log2 fold change: 0.427

RRIRSRPPRLPRPRPRPAHQPRP
shrunken log2 fold change: -0.0659

RRIRSRPPRLPRPRPRPAKRPRP
shrunken log2 fold change: 0.214

RRIRSRPPRLPRPRPRPAKYPRP
shrunken log2 fold change: -0.215

RRIRSRPPRLPRPRPRPAMFPRP
shrunken log2 fold change: -0.0843

RRIRSRPPRLPRPRPRPANTPRP
shrunken log2 fold change: -0.268

RRIRSRPPRLPRPRPRPAQMPRP
shrunken log2 fold change: 0.437

RRIRSRPPRLPRPRPRPAQQPRP
shrunken log2 fold change: 0.409

RRIRSRPPRLPRPRPRPASHPRP
shrunken log2 fold change: -0.167

RRIRSRPPRLPRPRPRPATKPRP
shrunken log2 fold change: 0.161

RRIRSRPPRLPRPRPRPCAPPRP
shrunken log2 fold change: 0.0418

RRIRSRPPRLPRPRPRPCCPPRP
shrunken log2 fold change: -0.0457

RRIRSRPPRLPRPRPRPCCSPRP
shrunken log2 fold change: -0.00502

RRIRSRPPRLPRPRPRPCDCPRP
shrunken log2 fold change: -0.239

RRIRSRPPRLPRPRPRPCHDPRP
shrunken log2 fold change: -0.105

RRIRSRPPRLPRPRPRPCIFPRP
shrunken log2 fold change: -0.471

RRIRSRPPRLPRPRPRPCLKPRP
shrunken log2 fold change: 0.0091

RRIRSRPPRLPRPRPRPCLQPRP
shrunken log2 fold change: -0.197

RRIRSRPPRLPRPRPRPCMMPRP
shrunken log2 fold change: 0.0683

RRIRSRPPRLPRPRPRPCNHPRP
shrunken log2 fold change: -0.361

RRIRSRPPRLPRPRPRPCQGPRP
shrunken log2 fold change: -0.028

RRIRSRPPRLPRPRPRPCTKPRP
shrunken log2 fold change: -0.581

RRIRSRPPRLPRPRPRPCVAPRP
shrunken log2 fold change: 0.0901

RRIRSRPPRLPRPRPRPCVDPRP
shrunken log2 fold change: 0.00587

RRIRSRPPRLPRPRPRPCWLPRP
shrunken log2 fold change: 0.102

RRIRSRPPRLPRPRPRPCWVPRP
shrunken log2 fold change: -0.272

RRIRSRPPRLPRPRPRPCYGPRP
shrunken log2 fold change: -0.523

RRIRSRPPRLPRPRPRPDAGPRP
shrunken log2 fold change: 0.569

RRIRSRPPRLPRPRPRPDARPRP
shrunken log2 fold change: 0.1

RRIRSRPPRLPRPRPRPDDPPRP
shrunken log2 fold change: 0.0348

RRIRSRPPRLPRPRPRPDDQPRP
shrunken log2 fold change: 0.143

RRIRSRPPRLPRPRPRPDDTPRP
shrunken log2 fold change: -0.144
